The target in assay [1] is T1, human MSLN-His-Avi (human, UniProt Q13421 296-598, single biotin (BirA) in the biotinylated form).
T1 construct: Monomeric, made in HEK293-6E; Used both immobilised and in solution; also called hMSLN-His-Avi; biotinylated hMSLN-His-Avi
Put plainly: ELISA, hMSLN-His-Avi coated at 1 ug/ml.

Assay [2] has as its target T1, human MSLN-His-Avi. Briefly: SPR (Biacore), hMSLN-His-Avi immobilised at 50 RU, mAb injected. Here is the method: (§1) Human MSLN-His-Avi was immobilised on flow cell 2 on a CM5 Series S BIAcore sensor chip (GE Healthcare, BR100530) using an amine coupling kit (GE Healthcare, BR10050) to approximately 200 response units (RU). Flow cell 1 was left blank for subtraction. HEK293-6E supernatants or purified proteins were adjusted with HBS-EP+(GE Healthcare) to approximately 50 nM anti-MSLN mAb per sample. Samples were injected over flow cell 1 and 2 for 2.5 min at 30 μl/min and then allowed to dissociate in HBS-EP buffer for 2.5 min. Regeneration was achieved by injecting 10 mM glycine pH 1.5 (GE Healthcare, BR100354) for 30 seconds at a rate of 30 μl/min. Subtracted data (flow cell 2−flow cell 1) were analysed using BIAevaluation 3.2 Software (GE Healthcare).
(§2) For each bin described in 2.1.3, the binding kinetics were determined using the same method as described in section 2.1.2, except that human or cyno MSLN-His-Avi was immobilised at 50 or 100 RU. Clones were tested at a concentration range of 81 nM to 0.33 nM in 3-fold dilutions.

For assay [3], the target named is T2, human E-Cadherin (R&D systems, 8505-EC) (human, UniProt P12830 155-707).
T2 sequence (looked up): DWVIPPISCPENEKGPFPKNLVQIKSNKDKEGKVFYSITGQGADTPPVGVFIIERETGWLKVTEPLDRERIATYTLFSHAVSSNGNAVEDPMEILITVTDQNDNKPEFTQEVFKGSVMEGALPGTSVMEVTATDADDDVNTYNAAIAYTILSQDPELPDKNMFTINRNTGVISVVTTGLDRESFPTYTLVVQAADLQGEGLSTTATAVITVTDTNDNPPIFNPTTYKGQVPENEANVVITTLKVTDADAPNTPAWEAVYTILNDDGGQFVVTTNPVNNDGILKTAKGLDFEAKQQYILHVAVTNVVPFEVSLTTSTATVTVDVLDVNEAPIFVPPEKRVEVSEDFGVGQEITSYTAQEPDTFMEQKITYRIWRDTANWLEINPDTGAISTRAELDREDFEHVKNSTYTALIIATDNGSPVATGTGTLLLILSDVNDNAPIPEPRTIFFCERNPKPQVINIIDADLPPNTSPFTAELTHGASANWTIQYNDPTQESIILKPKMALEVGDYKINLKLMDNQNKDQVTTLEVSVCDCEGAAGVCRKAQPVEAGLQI
Briefly: ELISA, antigen coated at 1 ug/ml. On the procedure:
(§3) A similar protocol was used as described in section 1.2.1 in which maxisorp plates were coated with 1 μg/ml of recombinant human MSLN-His-Avi, human CEACAM-5-His-Fc (Sino Biological, 1077-H03H), human E-Cadherin (R&D systems, 8505-EC), human Thrombomodulin (Peprotech, 100-58) or human EpCAM-hFc (in-house production). Binding of the anti-MSLN mAbs, tested at a concentration range of 0.02 to 1000 nM (3-fold dilutions) was detected using anti-human Fab-HRP (Sigma, A0293). Positive controls for the respective molecules included human EpCAM antibody (clone 2G8 from patent no. U.S. Pat. No. 8,236,308 B2) CEACAM-5 antibody (clone hMN15 from patent no. U.S. Pat. No. 8,771,690 B2), human E-Cadherin antibody, mouse IgG2b clone 180215 (R&D systems, MAB1838), human Thrombomodulin antibody, mouse IgG1, clone 501733 (R&D systems, MAB3947). The latter two were detected using goat anti mouse Fc-HRP (Sigma, A9309) as secondary mAb.

Assay [4] concerns the target T3, human CEACAM-5-His-Fc (Sino Biological, 1077-H03H) (human, UniProt P06731 35-685).
T3 construct: not shown: His tag and Fc
T3 sequence (looked up): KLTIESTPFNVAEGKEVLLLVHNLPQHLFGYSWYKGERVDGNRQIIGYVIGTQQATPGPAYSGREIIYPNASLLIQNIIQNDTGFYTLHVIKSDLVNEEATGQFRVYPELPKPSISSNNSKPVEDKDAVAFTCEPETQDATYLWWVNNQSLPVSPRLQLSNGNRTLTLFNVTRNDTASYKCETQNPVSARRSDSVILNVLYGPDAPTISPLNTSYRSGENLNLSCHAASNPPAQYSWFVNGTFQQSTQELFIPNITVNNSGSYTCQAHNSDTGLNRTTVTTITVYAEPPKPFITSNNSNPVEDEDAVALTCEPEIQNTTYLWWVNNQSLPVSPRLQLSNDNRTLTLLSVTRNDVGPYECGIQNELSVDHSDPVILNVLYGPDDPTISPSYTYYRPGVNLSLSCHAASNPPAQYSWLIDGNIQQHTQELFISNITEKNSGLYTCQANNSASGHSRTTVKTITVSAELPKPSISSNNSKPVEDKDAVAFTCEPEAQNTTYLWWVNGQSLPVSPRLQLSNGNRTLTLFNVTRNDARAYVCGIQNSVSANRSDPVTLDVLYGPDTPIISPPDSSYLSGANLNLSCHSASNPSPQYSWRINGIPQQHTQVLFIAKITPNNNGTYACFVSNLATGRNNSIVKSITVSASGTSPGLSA
Put plainly: ELISA, antigen coated at 1 ug/ml. Here is the method: as §3

In assay [5] the target is T4, human EpCAM-hFc (in-house production) (human, UniProt P16422 24-265, limits assumed).
T4 construct: not shown: human Fc
T4 sequence (looked up): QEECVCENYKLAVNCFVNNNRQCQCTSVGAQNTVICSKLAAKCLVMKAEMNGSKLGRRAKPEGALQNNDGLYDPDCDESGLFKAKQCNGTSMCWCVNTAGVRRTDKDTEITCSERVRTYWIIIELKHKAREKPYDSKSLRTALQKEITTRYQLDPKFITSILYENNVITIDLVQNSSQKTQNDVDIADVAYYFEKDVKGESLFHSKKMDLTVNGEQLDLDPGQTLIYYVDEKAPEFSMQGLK
Put plainly: ELISA, antigen coated at 1 ug/ml. Here is the method: as §3

The target in assay [6] is human Thrombomodulin (Peprotech, 100-58) (human, UniProt P07204 19-515). Briefly: ELISA, antigen coated at 1 ug/ml. On the procedure:
as §3

Assay [7] concerns the target T1, human MSLN-His-Avi. Briefly: SPR (Biacore), hMSLN-His-Avi immobilised at 100 RU, mAb injected. On the procedure:
as §1, §2

For assay [8], the target named is T5, cell surface human mesothelin (MSLN) (human, UniProt Q13421 296-598).
T5 construct: whole, on cells; also called cell surface MSLN
Briefly: flow cytometry, NCI-H226 cells (n = 3). On the procedure:
Briefly, NCI-H226 cells (ATCC CRL-5826) were harvested from T175 cell culture flasks using StemPro Accutase (Gibco, A11105-01). Cells were centrifuged at 1200 rpm for 3 min and resuspended in ice cold FACS buffer made up of DPBS (Life Technologies, 14190169) and 1% BSA (Sigma-Aldrich, A7906) at 2×10⁶ cells/ml and 50 μl per well was seeded in a 96-well V-bottom plate (Costar, 3894). All mAbs tested were diluted in FACS buffer in 120 μl at a concentration range of 0.01-200 nM (4-fold dilutions). The NCI-H226 cells were then centrifuged, supernatant removed and cells resuspended in 100 μl of each mAb dilution and incubated at 4° C. for 45 min. Cells were washed twice by centrifugation with 150 μl FACS buffer, resuspended in 100 μl containing goat anti-human IgG (γ-chain specific) F(ab′)2 fragment-R-Phycoerythrin antibody (Sigma, P8047) diluted 1:1000 in FACS buffer and incubated at 4° C. for 45 min. The cells were washed once with 150 μl FACS buffer and then with 150 μl DPBS, resuspended in 150 μl DPBS containing DAPI (Biotium, 40043) at 1:10.000 and read on the BDCantoll or iQue (Intellicyt). Data was analysed using FlowJo v10 to determine the signal geometric mean for PE for live cells in each well.

In assay [9] the target is T1, human MSLN-His-Avi. Put plainly: SPR as Example 4.1 (about 40 RU instead of 100), MSLN immobilised.
Assay [10] deals with T1, human MSLN-His-Avi. Briefly: SPR as Example 4.1 (about 40 RU instead of 100), MSLN in solution.
The target in assay [11] is T1, human MSLN-His-Avi. Put plainly: ratio of the two SPR KD.

Data on six molecules can be found in patent US20220267421A1 (INVOX PHARMA, published 2022).

T1 sequence (Q13421 other isoform, or with tags, fused parts or gaps): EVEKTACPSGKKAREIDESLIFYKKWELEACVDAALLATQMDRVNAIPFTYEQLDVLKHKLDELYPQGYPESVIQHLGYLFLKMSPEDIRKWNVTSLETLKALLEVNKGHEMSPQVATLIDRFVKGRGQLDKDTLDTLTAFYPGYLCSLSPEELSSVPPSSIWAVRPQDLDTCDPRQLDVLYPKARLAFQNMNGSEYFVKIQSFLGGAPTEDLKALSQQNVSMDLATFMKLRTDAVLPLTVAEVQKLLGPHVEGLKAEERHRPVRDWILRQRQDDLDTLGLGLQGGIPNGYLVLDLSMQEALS
T5 sequence (Q13421 other isoform, or with tags, fused parts or gaps limits assumed): as the sequence (Q13421 other isoform, or with tags, fused parts or gaps) above
human Thrombomodulin (Peprotech, 100-58), sequence (P07204 19-515 limits assumed): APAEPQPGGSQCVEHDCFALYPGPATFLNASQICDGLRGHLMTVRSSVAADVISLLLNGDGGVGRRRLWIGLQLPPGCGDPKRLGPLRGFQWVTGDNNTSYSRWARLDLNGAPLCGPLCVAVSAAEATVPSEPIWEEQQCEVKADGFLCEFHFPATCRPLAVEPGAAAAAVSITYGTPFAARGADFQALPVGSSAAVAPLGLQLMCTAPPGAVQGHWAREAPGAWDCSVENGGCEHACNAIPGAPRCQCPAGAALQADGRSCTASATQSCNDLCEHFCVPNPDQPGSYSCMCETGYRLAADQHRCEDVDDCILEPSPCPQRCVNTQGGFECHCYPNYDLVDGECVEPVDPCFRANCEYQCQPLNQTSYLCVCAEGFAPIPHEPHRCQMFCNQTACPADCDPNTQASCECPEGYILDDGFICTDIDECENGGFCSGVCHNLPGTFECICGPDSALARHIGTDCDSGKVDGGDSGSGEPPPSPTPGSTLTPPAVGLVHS

B1: G1-AA/FS28-185 (antibody, human IgG1, kappa, L234A L235A, V domains shown)
VH: EVQLLESGGGLVQPGGSLRLSCAASGFTFTTSAMSWVRQAPGKGLEWVSRINPYEGETNYADSVKGRFTISRDNSKNTLYLQMNSLRAEDTAVYYCARGWSIATYYKSAMDYWGQGTLVTVSS
VL: EIVLTQSPGTLSLSPGERATLSCRASQSVSSSYLAWYQQKPGQAPRLLIYGASSRATGIPDRFSGSGSGTDFTLTISRLEPEDFAVYYCQQSSYSAPVTFGQGTKVEIKR
notes: IgG1 LALA
B1: the EC50 in [1] is around 0.5 nM; in assay [8] it was 37.5 nM. The molecule also registered a maximum binding signal in assay [1] of 3. The dissociation constant (Kd) was 37 nM in assay [2] and 29.6 nM in [7]. Also, the binding result in assay [3], in [4], in [5] and in [6] was “no binding (tested: 1000 nM)” each time. Further, the “Emax (MFI signal)” value in assay [8] worked out at 2440 MFI.

B2: FS28-256-274 (in CD137 mAb^2 format) (bispecific antibody, V domains shown)
VH: EVQLLESGGGLVQPGGSLRLSCAASGFTFTHTYMSWVRQAPGKGLEWVSTISPTYSTTNYADSVKGRFTISRDNNKNTLYLQMNSLRAEDTAVYYCARYNAYHAALDYWGQGTLVTVSS
VL: EIVLTQSPGTLSLSPGERATLSCRASQSVSSSYLAWYQQKPGQAPRLLIYGASSRATGIPDRFSGSGSGTDFTLTISRLEPEDFAVYYCQQTVPYPYTFGQGTKVEIK
On to B2, for which the dissociation constant (Kd) in assay [9] came to 19.8 nM; in [10], 55.9 nM. Moreover, in assay [11], the “Ratio of KD in solution/immobilised for human MSLN-His-Avi” value (from here on “Ratio of KD in solution/immobilised”) was found to be 2.8.

B3: G1-AA/FS28-256 (antibody, human IgG1, kappa, L234A L235A, V domains shown)
VH: EVQLLESGGGLVQPGGSLRLSCAASGFTFTNTYMSWVRQAPGKGLEWVSNISPTYSTTNYADSVKGRFTISRDNSKNTLYLQMNSLRAEDTAVYYCARYNSYQGGLDYWGQGTLVTVSS
VL: EIVLTQSPGTLSLSPGERATLSCRASQSVSSSYLAWYQQKPGQAPRLLIYGASSRATGIPDRFSGSGSGTDFTLTISRLEPEDFAVYYCQQSYYYPITFGQGTKVEIKR
notes: IgG1 LALA
In assay [2], B3 showed a Kd of 26.2 nM. Besides, the affinity in [7], expressed as Kd, was 23.2 nM. Besides, in [8], a half-maximal effect (EC50) was put at 33.1 nM and the “Emax (MFI signal)” value came to 4250 MFI.

B4: FS28-256-273 (in CD137 mAb^2 format) (bispecific antibody, V domains shown)
VH: EVQLLESGGGLVQPGGSLRLSCAASGFTFTHTYMSWVRQAPGKGLEWVSSISPTYSTTNYADSVKGRFTISRDNNKNTLYLQMNSLRAEDTAVYYCARYNAYHAALDYWGQGTLVTVSS
VL: EIVLTQSPGTLSLSPGERATLSCRASQSVSSSYLAWYQQKPGQAPRLLIYGASSRATGIPDRFSGSGSGTDFTLTISRLEPEDFAVYYCQQTVPYPYTFGQGTKVEIK
As to B4, the Kd in assay [9] amounted to 6 nM; in assay [10], 7.4 nM. Moreover, the “Ratio of KD in solution/immobilised” value in [11] stood at 1.2.

B5: FS28-256-027 (in CD137 mAb^2 format, Table 6) (bispecific antibody, V domains shown)
VH: EVQLLESGGGLVQPGGSLRLSCAASGFTFTHTYMSWVRQAPGKGLEWVSNISPTYSTTNYADSVKGRFTISRDNNKNTLYLQMNSLRAEDTAVYYCARYNAYHAALDYWGQGTLVTVSS
VL: EIVLTQSPGTLSLSPGERATLSCRASQSVSSSYLAWYQQKPGQAPRLLIYGASSRATGIPDRFSGSGSGTDFTLTISRLEPEDFAVYYCQQTVPYPYTFGQGTKVEIK
For B5, the Kd in [9] turned out to be 4.7 nM; in assay [10], 3.2 nM. Moreover, the “Ratio of KD in solution/immobilised” value in assay [11] was determined as 0.68.

B6: FS28-256-272 (in CD137 mAb^2 format) (bispecific antibody, V domains shown)
VH: EVQLLESGGGLVQPGGSLRLSCAASGFTFTHTYMSWVRQAPGKGLEWVSHISPTYSTTNYADSVKGRFTISRDNNKNTLYLQMNSLRAEDTAVYYCARYNAYHAALDYWGQGTLVTVSS
VL: EIVLTQSPGTLSLSPGERATLSCRASQSVSSSYLAWYQQKPGQAPRLLIYGASSRATGIPDRFSGSGSGTDFTLTISRLEPEDFAVYYCQQTVPYPYTFGQGTKVEIK
notes: Position 55 is IMGT numbering, not the count on the entry
Turning to B6, the Kd in assay [9] turned out to be 10.7 nM; in assay [10], 7.6 nM. Also, the “Ratio of KD in solution/immobilised” value in assay [11] was 0.7.
